In the Human Domainome abundance scans (Beltran et al. 2025):
± gives the uncertainty stated by the source.

B1: Formin-binding protein 4, residues 200 to 261; numbered along this chain, Q8N3X1 (parent)
chain: SGWQYDTQCSLAGVGIEMGDWQEVWDENTGCYYYWNTQTNEVTWELPQYLATQVQGLQHYQP

Variants of: B1
Experiment: abundance fitness (aPCA) (normalised: wild type 0, dead -1); higher = more abundant; growth selection in yeast, the domain comes from the species named
Settings: Homo sapiens

For SGWQYDTQCSLAWVGIEMGDWQEVWDENTGCYYYWNTQTNEVTWELPQYLATQVQGLQHYQP [G13W], which abundance fitness is on record?
The abundance fitness was -0.666 ± 0.097.

With SGWQYDTQCSLARVGIEMGDWQEVWDENTGCYYYWNTQTNEVTWELPQYLATQVQGLQHYQP [G13R] as the variant, how does the abundance fitness read?
The abundance fitness was -0.194 ± 0.057.

With SGWQYDTQCSLAAVGIEMGDWQEVWDENTGCYYYWNTQTNEVTWELPQYLATQVQGLQHYQP [G13A] as the variant, how does the abundance fitness read?
The abundance fitness was -0.237 ± 0.09.

Which abundance fitness does the source give for SGWQYDTQCSLAFVGIEMGDWQEVWDENTGCYYYWNTQTNEVTWELPQYLATQVQGLQHYQP [G13F] here?
Its abundance fitness is -0.129 ± 0.084.

With SGWQYDTQCSLAIVGIEMGDWQEVWDENTGCYYYWNTQTNEVTWELPQYLATQVQGLQHYQP [G13I] as the variant, how does the abundance fitness read?
Its abundance fitness is -0.471 ± 0.14.

For SGWQYDTQCSLADVGIEMGDWQEVWDENTGCYYYWNTQTNEVTWELPQYLATQVQGLQHYQP [G13D], which abundance fitness is on record?
The abundance fitness was -0.087 ± 0.094.

With SGWQYDTQCSLAMVGIEMGDWQEVWDENTGCYYYWNTQTNEVTWELPQYLATQVQGLQHYQP [G13M] as the variant, how does the abundance fitness read?
Its abundance fitness is -0.158 ± 0.1.

With SGWQYDTQCSLAQVGIEMGDWQEVWDENTGCYYYWNTQTNEVTWELPQYLATQVQGLQHYQP [G13Q] as the variant, how does the abundance fitness read?
Its abundance fitness is -0.197 ± 0.11.

For SGWQYDTQCSLASVGIEMGDWQEVWDENTGCYYYWNTQTNEVTWELPQYLATQVQGLQHYQP [G13S], which abundance fitness is on record?
The abundance fitness was -0.171 ± 0.065.

Which abundance fitness does the source give for SGWQYDTQCSLAYVGIEMGDWQEVWDENTGCYYYWNTQTNEVTWELPQYLATQVQGLQHYQP [G13Y] here?
Its abundance fitness is -0.578 ± 0.14.

With SGWQYDTQCSLAHVGIEMGDWQEVWDENTGCYYYWNTQTNEVTWELPQYLATQVQGLQHYQP [G13H] as the variant, how does the abundance fitness read?
The abundance fitness was -0.158 ± 0.14.

Which abundance fitness does the source give for SGWQYDTQCSLALVGIEMGDWQEVWDENTGCYYYWNTQTNEVTWELPQYLATQVQGLQHYQP [G13L] here?
Its abundance fitness is -0.187 ± 0.055.

Which abundance fitness does the source give for SGWQYDTQCSLATVGIEMGDWQEVWDENTGCYYYWNTQTNEVTWELPQYLATQVQGLQHYQP [G13T] here?
The abundance fitness was -0.009 ± 0.077.

Which abundance fitness does the source give for SGWQYDTQCSLACVGIEMGDWQEVWDENTGCYYYWNTQTNEVTWELPQYLATQVQGLQHYQP [G13C] here?
Its abundance fitness is -0.103 ± 0.098.

For SGWQYDTQCSLAVVGIEMGDWQEVWDENTGCYYYWNTQTNEVTWELPQYLATQVQGLQHYQP [G13V], which abundance fitness is on record?
The abundance fitness was -0.424 ± 0.069.

For SGWQYDTQCSLANVGIEMGDWQEVWDENTGCYYYWNTQTNEVTWELPQYLATQVQGLQHYQP [G13N], which abundance fitness is on record?
Its abundance fitness is -0.468 ± 0.15.

Which abundance fitness does the source give for SGWQYDTQCSLAKVGIEMGDWQEVWDENTGCYYYWNTQTNEVTWELPQYLATQVQGLQHYQP [G13K] here?
The abundance fitness was -0.107 ± 0.094.

With SGWQYDTQCSLAEVGIEMGDWQEVWDENTGCYYYWNTQTNEVTWELPQYLATQVQGLQHYQP [G13E] as the variant, how does the abundance fitness read?
The abundance fitness was -0.161 ± 0.094.

With SGWQYDTQCSLAPVGIEMGDWQEVWDENTGCYYYWNTQTNEVTWELPQYLATQVQGLQHYQP [G13P] as the variant, how does the abundance fitness read?
The abundance fitness was -0.082 ± 0.079.

Which abundance fitness does the source give for SGWQYDTQCVLAGVGIEMGDWQEVWDENTGCYYYWNTQTNEVTWELPQYLATQVQGLQHYQP [S10V] here?
Its abundance fitness is -0.701 ± 0.071.

Which abundance fitness does the source give for SGWQYDTQCALAGVGIEMGDWQEVWDENTGCYYYWNTQTNEVTWELPQYLATQVQGLQHYQP [S10A] here?
The abundance fitness was -0.266 ± 0.065.

For SGWQYDTQCKLAGVGIEMGDWQEVWDENTGCYYYWNTQTNEVTWELPQYLATQVQGLQHYQP [S10K], which abundance fitness is on record?
The abundance fitness was -0.457 ± 0.12.

With SGWQYDTQCQLAGVGIEMGDWQEVWDENTGCYYYWNTQTNEVTWELPQYLATQVQGLQHYQP [S10Q] as the variant, how does the abundance fitness read?
Its abundance fitness is -0.498 ± 0.11.

With SGWQYDTQCTLAGVGIEMGDWQEVWDENTGCYYYWNTQTNEVTWELPQYLATQVQGLQHYQP [S10T] as the variant, how does the abundance fitness read?
The abundance fitness was -0.112 ± 0.078.

Which abundance fitness does the source give for SGWQYDTQCLLAGVGIEMGDWQEVWDENTGCYYYWNTQTNEVTWELPQYLATQVQGLQHYQP [S10L] here?
Its abundance fitness is -0.651 ± 0.074.

With SGWQYDTQCDLAGVGIEMGDWQEVWDENTGCYYYWNTQTNEVTWELPQYLATQVQGLQHYQP [S10D] as the variant, how does the abundance fitness read?
The abundance fitness was -0.472 ± 0.12.

For SGWQYDTQCWLAGVGIEMGDWQEVWDENTGCYYYWNTQTNEVTWELPQYLATQVQGLQHYQP [S10W], which abundance fitness is on record?
The abundance fitness was -1.03 ± 0.17.

With SGWQYDTQCGLAGVGIEMGDWQEVWDENTGCYYYWNTQTNEVTWELPQYLATQVQGLQHYQP [S10G] as the variant, how does the abundance fitness read?
Its abundance fitness is -0.148 ± 0.052.

Which abundance fitness does the source give for SGWQYDTQCMLAGVGIEMGDWQEVWDENTGCYYYWNTQTNEVTWELPQYLATQVQGLQHYQP [S10M] here?
The abundance fitness was -0.521 ± 0.12.

With SGWQYDTQCCLAGVGIEMGDWQEVWDENTGCYYYWNTQTNEVTWELPQYLATQVQGLQHYQP [S10C] as the variant, how does the abundance fitness read?
Its abundance fitness is -0.332 ± 0.098.

Which abundance fitness does the source give for SGWQYDTQCNLAGVGIEMGDWQEVWDENTGCYYYWNTQTNEVTWELPQYLATQVQGLQHYQP [S10N] here?
The abundance fitness was -0.533 ± 0.13.

Which abundance fitness does the source give for SGWQYDTQCPLAGVGIEMGDWQEVWDENTGCYYYWNTQTNEVTWELPQYLATQVQGLQHYQP [S10P] here?
Its abundance fitness is -0.216 ± 0.081.

With SGWQYDTQCILAGVGIEMGDWQEVWDENTGCYYYWNTQTNEVTWELPQYLATQVQGLQHYQP [S10I] as the variant, how does the abundance fitness read?
The abundance fitness was -0.476 ± 0.14.

Which abundance fitness does the source give for SGWQYDTQCYLAGVGIEMGDWQEVWDENTGCYYYWNTQTNEVTWELPQYLATQVQGLQHYQP [S10Y] here?
Its abundance fitness is -0.623 ± 0.17.

With SGWQYDTQCFLAGVGIEMGDWQEVWDENTGCYYYWNTQTNEVTWELPQYLATQVQGLQHYQP [S10F] as the variant, how does the abundance fitness read?
The abundance fitness was -0.776 ± 0.14.

Which abundance fitness does the source give for SGWQYDTQCRLAGVGIEMGDWQEVWDENTGCYYYWNTQTNEVTWELPQYLATQVQGLQHYQP [S10R] here?
The abundance fitness was -0.328 ± 0.062.

Which abundance fitness does the source give for SGWQYDTQCHLAGVGIEMGDWQEVWDENTGCYYYWNTQTNEVTWELPQYLATQVQGLQHYQP [S10H] here?
The abundance fitness was -0.644 ± 0.15.

For SGWQYDTQCSLAGDGIEMGDWQEVWDENTGCYYYWNTQTNEVTWELPQYLATQVQGLQHYQP [V14D], which abundance fitness is on record?
Its abundance fitness is -0.273 ± 0.24.

Which abundance fitness does the source give for SGWQYDTQCSLAGAGIEMGDWQEVWDENTGCYYYWNTQTNEVTWELPQYLATQVQGLQHYQP [V14A] here?
The abundance fitness was -0.06 ± 0.07.

Which abundance fitness does the source give for SGWQYDTQCSLAGCGIEMGDWQEVWDENTGCYYYWNTQTNEVTWELPQYLATQVQGLQHYQP [V14C] here?
The abundance fitness was -0.043 ± 0.17.

Which abundance fitness does the source give for SGWQYDTQQSLAGVGIEMGDWQEVWDENTGCYYYWNTQTNEVTWELPQYLATQVQGLQHYQP [C9Q] here?
The abundance fitness was 0.017 ± 0.082.

With SGWQYDTQHSLAGVGIEMGDWQEVWDENTGCYYYWNTQTNEVTWELPQYLATQVQGLQHYQP [C9H] as the variant, how does the abundance fitness read?
The abundance fitness was -0.139 ± 0.11.

With SGWQYDTQYSLAGVGIEMGDWQEVWDENTGCYYYWNTQTNEVTWELPQYLATQVQGLQHYQP [C9Y] as the variant, how does the abundance fitness read?
The abundance fitness was -0.105 ± 0.076.
